The results in this text go back to patent US20230105982A1 (Merck Sharp & Dohme, published 2023).

Starred links: 1 amine or outer side, 2 acyl side, 3 side chain; linkers in the order of their positions; H or OH if unused. Non-standard residues stand in square brackets, D forms with d. Groups on a side chain read outwards from the residue. No end group written: not given here. *: point of attachment. C16 = C16 fatty acyl group, not further defined; C18 diacid = O=C(O)CCCCCCCCCCCCCCCCC(=O)*; Lys(N3) = [N-]=[N+]=NCCCC[C@H](N)C(=O)O; γGlu = O=C(O)[C@H](CCC(=O)[*:2])N[*:1]; Met(O2) = CS(=O)(=O)CC[C@H](N)C(=O)O; Palmitoyl = CCCCCCCCCCCCCCCC(=O)*; AEEA = NCCOCCOCC(=O)O; Aib = CC(C)(N)C(=O)O

Holding throughout (assay): cell-based or functional assay
For one test, the target named is human glucagon receptor (human, UniProt P47871 26-477).
For another test, the target named is human GLP-1 receptor (human, UniProt P43220 24-463).
Test [1] has as its target human Glucagon receptor (GCGR) (human, UniProt P47871 26-477).
Test [2] has as its target human GLP-1 receptor (GLP1R) (human, UniProt P43220 24-463).

B1: PEP76 (control molecule of Table 7) (peptide)
peptide: H[dS]QGTFTSDK([γGlu-γGlu-Palmitoyl])SKYLDERAAQDFVQWLLDT-NH2
modifications: N-terminus assumed
SMILES: CCCCCCCCCCCCCCCC(=O)N[C@@H](CCC(=O)N[C@@H](CCC(=O)NCCCC[C@H](NC(=O)[C@H](CC(=O)O)NC(=O)[C@H](CO)NC(=O)[C@@H](NC(=O)[C@H](Cc1ccccc1)NC(=O)[C@@H](NC(=O)CNC(=O)[C@H](CCC(N)=O)NC(=O)[C@@H](CO)NC(=O)[C@@H](N)Cc1c[nH]cn1)[C@@H](C)O)[C@@H](C)O)C(=O)N[C@@H](CO)C(=O)N[C@@H](CCCCN)C(=O)N[C@@H](Cc1ccc(O)cc1)C(=O)N[C@@H](CC(C)C)C(=O)N[C@@H](CC(=O)O)C(=O)N[C@@H](CCC(=O)O)C(=O)N[C@@H](CCCNC(=N)N)C(=O)N[C@@H](C)C(=O)N[C@@H](C)C(=O)N[C@@H](CCC(N)=O)C(=O)N[C@@H](CC(=O)O)C(=O)N[C@@H](Cc1ccccc1)C(=O)N[C@H](C(=O)N[C@@H](CCC(N)=O)C(=O)N[C@@H](Cc1c[nH]c2ccccc12)C(=O)N[C@@H](CC(C)C)C(=O)N[C@@H](CC(C)C)C(=O)N[C@@H](CC(=O)O)C(=O)N[C@H](C(N)=O)[C@@H](C)O)C(C)C)C(=O)O)C(=O)O
Consider B1, for which the figures for the “Incretin Receptor Assay (cAMP) EC50” value in the test with human glucagon receptor and with human GLP-1 receptor were 0.009 nM and 0.007 nM, respectively.

B2: PEP30 (peptide)
peptide: H[Aib]QGTFTSDYSKYLDARAAK([AEEA-AEEA-γGlu-C18 diacid])DFV[Lys(N3)]WL[Met(O2)]DT-NH2
For the molecule B2, the “hGCGR_EC50 (nM), cAMP assay” value in test [1] was found to be 2.27 nM. In addition, the “hGLP1R EC50 (nM), cAMP assay” value in test [2] came out at 0.5 nM.

B3: PEP31 (peptide)
peptide: H[Aib]QGTFTSDYSKYLDARAAK([AEEA-AEEA-γGlu-C20‑OH])DFV[Lys(N3)]WL[Met(O2)]DT-NH2
Turning to B3, the “hGCGR_EC50 (nM), cAMP assay” value in test [1] came to 4.24 nM. In addition, the “hGLP1R EC50 (nM), cAMP assay” value in test [2] was determined as 1.38 nM.

B4: PEP1 (peptide)
peptide: H[dS]QGTFTSDK([γGlu-γGlu-C16])SKYLDERAAQ[Lys(N3)]FVQWLLDT-NH2
For B4, the “hGCGR_EC50 (nM), cAMP assay” value in test [1] is 0.01 nM.

B5: PEP75 (peptide)
peptide: HXEGTFTSDKSKYLDERAAQDFVXWLLDT
modifications: D-serine at 2; Lys 10 conjugated to γEγE-C16; Nle(εN3) at 24; C-terminal amide
On to B5, for which the “hGCGR_EC50 (nM), cAMP assay” value in test [1] is more than 5 nM.
